# Results reported in patent US20120225055A1 (GlaxoSmithKline, published 2012).
# How the values were obtained:
# [1] = target: T1, human serum amyloid P component (SAP), purified (Homo sapiens, UniProt P02743 20-223); assay: direct ELISA, human SAP coated at 1 µg/mL, detection with HRP rabbit anti-mouse IgG
# T1 construct: Immobilised directly, amine-coupled, captured on O-phosphoethanolamine or by sheep polyclonal antibody, depending on the assay; also called human SAP; native human SAP
# Description: (§1) 1 μg/mL or 5 μg/mL human SAP was directly immobilised onto an ELISA plate and blocked with 1% BSA/TBS plus 0.05% TWEEN20. Anti-SAP antibodies from purified material were titrated across the plate. Bound antibody was detected by treatment with a horse-radish peroxidase (HRP)-conjugated rabbit-anti-mouse IgG antibody (Dako, P0260). The ELISA was developed using O-phenylenediamine dihydrochloride (OPD) peroxidase substrate (Sigma, P9187).
# [2] = target: T1, human serum amyloid P component (SAP), …; assay: direct ELISA, human SAP coated at 5 µg/mL, detection with HRP rabbit anti-mouse IgG
# Description: as §1
# [3] = target: T1, human serum amyloid P component (SAP), …; assay: Biacore (BIAcoreX), human SAP covalently immobilised on the chip; mean and SD of 3 replicates
# [4] = target: T1, human serum amyloid P component (SAP), …; assay: Biacore, human SAP captured on immobilised O-phosphoethanolamine (CM5 chip, calcium), bivalent analyte model
# Description: (§2) O-phosphoethanolamine was immobilised on a Biacore CM5 chip by primary amine coupling in accordance with the manufacturer's instructions. Human SAP was then captured on the surface in the presence of calcium chloride, in order to replicate in the Biacore system in vitro, the precise orientation of SAP molecules bound to amyloid fibrils in vivo. Anti SAP antibodies were then passed over this surface at 256, 64, 16, 4, 1 nM and a binding sensorgrams obtained. Analysis was carried out at 25° C. using 4% BSA, 10 mM Tris, 140 mM NaCl, 2 mM CaCl₂, 0.05% surfactant P20, 0.02% Na N₃, pH 8.0 as running buffer. […] Data generated were double referenced with a buffer injection over the human SAP surface and analyzed using the bivalent analyte model in the Biacore T100 evaluation software.
# [5] = target: T1, human serum amyloid P component (SAP), …; assay: ELISA, 1 ug/mL human SAP directly immobilised
# Description: as §1, with “1” for “1 μg/mL or 5”, “from the test supernatants or” for “from”, “goat anti-human Kappa Light Chains” for “a horse-radish”, “conjugate (Sigma, A7164).” for “(HRP)-conjugated rabbit-anti-mouse IgG antibody (Dako, P0260).”
# [6] = target: T1, human serum amyloid P component (SAP), …; assay: Biacore, human SAP amine-coupled on CM3 chip, bivalent analyte model
# Description: Human SAP was immobilised on a Biacore CM3 chip by primary amine coupling in accordance with the manufacturer's instructions. […] All runs were double referenced with a buffer injection over the human SAP surface. Analysis was carried out at 25° C. using HBS-EP buffer.
# [7] = target: T1, human serum amyloid P component (SAP), …; assay: Biacore, human SAP amine-coupled on C1 chip, culture supernatant, 1 to 1 dissociation model, single curve
# Description: Human and cynomologus monkey SAP were immobilised on a Biacore C1 chip by primary amine coupling in accordance with the manufacturer's instructions. […] All runs were double referenced with a buffer injection for purified sample or media for the supernatant samples over the human and cyno SAP surfaces. Analysis was carried out at 25° C. using HBS-EP buffer. […] Data were analysed using the 1 to 1 dissociation model within the Biacore T100 evaluation software.
# The values were based on a single curve and used for ranking purposes between the different constructs for binding to human SAP.
# Target sequence in this assay (P02743 20-223): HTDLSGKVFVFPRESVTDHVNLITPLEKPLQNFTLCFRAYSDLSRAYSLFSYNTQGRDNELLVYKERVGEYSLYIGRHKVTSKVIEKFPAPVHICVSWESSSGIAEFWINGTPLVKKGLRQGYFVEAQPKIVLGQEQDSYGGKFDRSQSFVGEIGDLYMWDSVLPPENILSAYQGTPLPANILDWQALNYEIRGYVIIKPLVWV
# [8] = target: T1, human serum amyloid P component (SAP), …; assay: direct ELISA, human SAP coated at 1 µg/mL, detection with goat anti-human kappa light chain peroxidase conjugate
# Description: as §1, with “1” for “1 μg/mL or 5”, “from the test supernatants or” for “from”, “goat anti-human Kappa Light Chains” for “a horse-radish”, “conjugate (Sigma, A7164).” for “(HRP)-conjugated rabbit-anti-mouse IgG antibody (Dako, P0260).”
# [9] = target: T1, human serum amyloid P component (SAP), …; assay: Biacore kinetics, human SAP captured on immobilised O-phosphoethanolamine; alanine at position 91 of L0, not wild-type H3L0
# Description: as §2
# [10] = target: T1, human serum amyloid P component (SAP), …; assay: binding ELISA and Biacore off-rate ranking
fold loss of human SAP binding activity compared to the SAP-K chimera [5] [fold],Kd [6] [nM],koff [6] [s⁻¹],kon [6] [M⁻¹ s⁻¹],koff [7] [s⁻¹],Binder,other results
,,,,,"SAP-K mouse monoclonal anti-human SAP antibody (antibody, mouse IgG2a, V domains shown, also called Mouse SAP-K; murine SAP-K) VH: QVQLQQPGAELIKPGASVKLSCKASGYTFTSYWMHWVKQRPGQGLEWIGMIHPNSVNTNYNEKFKSKATLTVDKSSSTAYMQLNSLTSEDSAVYYCARRNDYYWYFDVWGTGTTVTVSS VL: DIVMTQSQKFMSTSVGDRVSVTCKASQNVNSNVAWYQQKPGQSPKALIYSASYRYSGVPDRFTGSGSGTDFTLTITNVQSEDLAEYFCQQCNNYPFTFGSGTKLEIK",EC50 (read off the curve) [1]: ~0.04 µg/mL; EC50 (read off the curve) [2]: ~0.02 µg/mL; Kd [3]: 1 nM; koff [3]: 1.7e-05 s⁻¹; kon [3]: 31800 M⁻¹ s⁻¹; Kd [4]: 0.73 nM; koff [4]: 0.000219 s⁻¹; kon [4]: 300000 M⁻¹ s⁻¹
~2,155,0.0178,115000,0.0171,"SAP-K H1L0 humanised antibody (antibody, V domains shown) VH: QVQLVQSGAEVKKPGSSVKVSCKASGYTFTSYWMHWVRQAPGQGLEWMGMIHPNSVNTNYNEKFKSRVTITADKSTSTAYMELSSLRSEDTAVYYCARRNDYYWYFDVWGQGTLVTVSS VL: DIQMTQSPSSLSASVGDRVTITCKASQNVNSNVAWYQQKPGKAPKLLIYSASYRYSGVPSRFSGSGSGTDFTLTISSLQPEDFATYYCQQCNNYPFTFGQGTKLEIK",EC50 (read off the curve) [8]: ~0.1 µg/mL
,,,,0.0236,"SAP-K H3L1 humanised antibody (antibody, V domains shown) VH: QVQLVQSGAEVKKPGSSVKVSCKASGYTFTSYWMHWVRQAPGQGLEWIGMIHPNSVNTNYNEKFKSRATLTVDKSTSTAYMELSSLRSEDTAVYYCARRNDYYWYFDVWGQGTLVTVSS VL: DIQMTQSPSSLSASVGDRVTITCKASQNVNSNVAWYQQKPGKAPKALIYSASYRYSGVPSRFSGSGSGTDFTLTISSLQPEDFATYYCQQCNNYPFTFGQGTKLEIK",
,,,,,"SAP-K H3 with L0 91A humanised light chain variant (antibody, human IgG1, V domains shown, Human IgG1/kappa; also called variant with alanine at position 91) VH: QVQLVQSGAEVKKPGSSVKVSCKASGYTFTSYWMHWVRQAPGQGLEWIGMIHPNSVNTNYNEKFKSRATLTVDKSTSTAYMELSSLRSEDTAVYYCARRNDYYWYFDVWGQGTLVTVSS VL: DIQMTQSPSSLSASVGDRVTITCKASQNVNSNVAWYQQKPGKAPKLLIYSASYRYSGVPSRFSGSGSGTDFTLTISSLQPEDFATYYCQQANNYPFTFGQGTKLEIK",Kd [9]: 0.436 nM
,,,,,"SAP-K H1 with L0 91A humanised light chain variant (antibody, human IgG1, V domains shown, Human IgG1/kappa; also called alanine variant paired with H1) VH: QVQLVQSGAEVKKPGSSVKVSCKASGYTFTSYWMHWVRQAPGQGLEWMGMIHPNSVNTNYNEKFKSRVTITADKSTSTAYMELSSLRSEDTAVYYCARRNDYYWYFDVWGQGTLVTVSS VL: DIQMTQSPSSLSASVGDRVTITCKASQNVNSNVAWYQQKPGKAPKLLIYSASYRYSGVPSRFSGSGSGTDFTLTISSLQPEDFATYYCQQANNYPFTFGQGTKLEIK",binding result [10]: binds
~2,739,0.0449,60800,0.0263,"SAP-K H0L0 humanised antibody (antibody, V domains shown) VH: QVQLVQSGAEVKKPGSSVKVSCKASGGTFSSYWMHWVRQAPGQGLEWMGMIHPNSVNTNYNEKFKSRVTITADKSTSTAYMELSSLRSEDTAVYYCARRNDYYWYFDVWGQGTLVTVSS VL: DIQMTQSPSSLSASVGDRVTITCKASQNVNSNVAWYQQKPGKAPKLLIYSASYRYSGVPSRFSGSGSGTDFTLTISSLQPEDFATYYCQQCNNYPFTFGQGTKLEIK",
,,,,0.0296,"SAP-K H1L1 humanised antibody (antibody, V domains shown) VH: QVQLVQSGAEVKKPGSSVKVSCKASGYTFTSYWMHWVRQAPGQGLEWMGMIHPNSVNTNYNEKFKSRVTITADKSTSTAYMELSSLRSEDTAVYYCARRNDYYWYFDVWGQGTLVTVSS VL: DIQMTQSPSSLSASVGDRVTITCKASQNVNSNVAWYQQKPGKAPKALIYSASYRYSGVPSRFSGSGSGTDFTLTISSLQPEDFATYYCQQCNNYPFTFGQGTKLEIK",
~2,191,0.022,115000,0.0204,"SAP-K H2L0 humanised antibody (antibody, V domains shown) VH: QVQLVQSGAEVKKPGSSVKVSCKASGYTFTSYWMHWVRQAPGQGLEWIGMIHPNSVNTNYNEKFKSRATITADKSTSTAYMELSSLRSEDTAVYYCARRNDYYWYFDVWGQGTLVTVSS VL: DIQMTQSPSSLSASVGDRVTITCKASQNVNSNVAWYQQKPGKAPKLLIYSASYRYSGVPSRFSGSGSGTDFTLTISSLQPEDFATYYCQQCNNYPFTFGQGTKLEIK",
,,,,0.0321,"SAP-K H2L1 humanised antibody (antibody, V domains shown) VH: QVQLVQSGAEVKKPGSSVKVSCKASGYTFTSYWMHWVRQAPGQGLEWIGMIHPNSVNTNYNEKFKSRATITADKSTSTAYMELSSLRSEDTAVYYCARRNDYYWYFDVWGQGTLVTVSS VL: DIQMTQSPSSLSASVGDRVTITCKASQNVNSNVAWYQQKPGKAPKALIYSASYRYSGVPSRFSGSGSGTDFTLTISSLQPEDFATYYCQQCNNYPFTFGQGTKLEIK",
